The values that follow come from paper PMC3621905.

For assay [1], the target named is Mouse TASK-3 (mKCNK9), untagged (mouse) (UniProt Q3LS21).
In assay [2] the target is HA-mKCNK9 (mouse TASK-3, HA-tagged) (mouse) (UniProt Q3LS21). In words: co-IP; DPP6 and TASK-3 co-expressed with one of them HA-tagged; membrane fraction solubilised in TNE buffer (50 mM TRIS, 150 mM NaCl, 1 mM EDTA, pH 7.4, 1% Triton X-100), precleared with mouse IgG agarose, incubated 16 h at 4°C with anti-HA agarose (clone HA-7); Western blot with anti-DPP6 or anti-KCNK9; Co-IP ratio = fraction precipitated indirectly when untagged divided by fraction precipitated directly when tagged. Background: Immunoblotting shows a protein as a band on a membrane.

The target in assay [3] is HA-DPP6K (mouse dipeptidyl peptidase-like protein 6, N-terminal variant K, HA-tagged) (mouse). The description is as above.

Take “DPP6K (mouse dipeptidyl peptidase-like protein 6, N-terminal variant K), untagged (natural protein)”: the resting membrane conductance of CHO-K1 cells co-expressing DPP6 with TASK-3, against TASK-3 alone (voltage clamp) in assay [1] was 2.3 fold. The Co-IP ratio (percent of the protein that could be directly precipitated) in assay [2] is 31.4%.

For “Mouse TASK-3 (mKCNK9), untagged (from UniProt Q3LS21 1-402) (natural protein)”, the Co-IP ratio (percent of the protein that could be directly precipitated) in assay [3] worked out at 31.4%.
